# Source: US5849890, “High affinity oligonucleotide ligands to chorionic gonadotropin hormone and related glycoprotein hormones” (NeXstar Pharmaceuticals, Inc.)
# B1: H-42 (ssRNA)
# RNA: GGGAGGACGAUGCGGACAAGGGCCUGAGUGUGGAGGGCACGUGGAGGGGACUGGCCAGACGACUCGCCCGA
# modifications: 2'-NH2 all pyrimidines
# B2: H-30 (ssRNA)
# RNA: GGGAGGACGAUGCGGUACUGUAAAACAAUCUGGAGGAGGGUCUAGGGGAUGGUGGCAGACGACUCGCCCGA
# modifications: 2'-NH2 all pyrimidines
# B3: ligand 25/9 dimer (ssRNA)
# RNA: GGGAGACAAGAAUAAACGCUCAACAGUGAUUGAACGAUCCUUUCAGCUGGUGGGUAUGGUCCCGGAGUCUCGUUGGUCGUUGAACGAUCCUUCGACAGGAGGCUCA
# modifications: 2'-F all pyrimidines
# B4: 2nd generation ligand 18 (ssRNA)
# RNA: GGGAGGACGAUGCGGCAUUCGCUGAUUCUUGAACGAUCCUUGAUGAUGUGGAUGCAGACGACUCGCCCGA
# modifications: 2'-F all pyrimidines
# B5: H-17 (ssRNA)
# RNA: GGGAGGACGAUGCGGAGGGAACGCGGAGGGGUGUGUCCCCCAGACUACAAGGCGGCAGACGACUCGCCCGA
# modifications: 2'-NH2 all pyrimidines
# B6: T-15 (ssRNA)
# RNA: GGGAGGACGAUGCGGAUGUUGGCAGCAGGGUCCGACGGCGUAACCUUGCCAGCUGCAGACGACUCGCCCGA
# modifications: 2'-NH2 all pyrimidines
# Key:
# [1] = biological target: T1, human luteinizing hormone (hLH) (Homo sapiens, UniProt P01215;P01229 P01215:25-116,P01229:21-141); experiment: filter; Mg, pH 6.5; <2-fold change at pH 7.0; details: tags: Becton Dickinson (2'-NH2 work); Scripps/Vitro Diagnostics (2'-F work); chain copies: alpha/beta heterodimer (inferred); label: 32P
# [2] = biological target: hCG beta-subunit (Homo sapiens, UniProt P0DN86 P0DN86:21-165); experiment: filter; details: tags: Calbiochem or Vitro Diagnostics; label: 32P
# Method: (§1) Internally-labeled RNA transcripts were prepared by including [α-^32P]ATP in T7 RNA polymerase transcription reactions. Full-length transcripts were purified on 8% denaturing polyacrylamide gels to ensure size homogeneity. Gel-purified RNA was diluted to a concentration of ~5 nM in TEM buffer, heated to 80° C. then chilled on ice to facilitate secondary structure formation. RNA concentrations were kept lower than 100 pM in binding reactions. Briefly, equal amounts of RNA were incubated with varying amounts of hormone in 50 μL of TEM buffer for 10 minutes at 37° C. RNA-protein mixtures were passed through pre-wet nitrocellulose filters (0.2μ), and the filters were immediately washed with 5 mL of binding buffer. Radioactivity retained on filters was determined by liquid scintillation counting. The quantities of RNA bound to filters in the absence of protein was determined and used for background correction. The percentage of input RNA retained on each filter was plotted against the corresponding log protein concentration. The nonlinear least square method was used to obtain the dissociation constant (K_d) (Jellinek et al. (1993) Proc. Natl. Acad. Sci. U.S.A. 90:11227–11231; Irvine et al. (1991) J. Mol. Biol. 222:739–761).
# (§2) By incorporating a counterselection step, SELEX allowed the isolation of hCG-specific RNA ligands (Example 5, infra).
# [3] = biological target: glycoprotein hormone common alpha-subunit (UniProt P01215 P01215:25-116); experiment: filter; details: tags: UCB-bioproducts; label: 32P
# Method: as §1, §2
# [4] = biological target: T2, human chorionic gonadotropin (hCG) heterodimer (Homo sapiens, UniProt P01215;P0DN86 P01215:25-116,P0DN86:21-165); experiment: filter; Mg, pH 6.5; Kd rises >25-fold at pH 7.0; details: tags: Calbiochem or Vitro Diagnostics (14,000 IU/mg); chain copies: alpha/beta heterodimer (stated); label: 32P
# [5] = biological target: T2, human chorionic gonadotropin (hCG) …; experiment: filter; +/- 13 nM; details: tags: Calbiochem or Vitro Diagnostics (14,000 IU/mg); chain copies: alpha/beta heterodimer (stated); label: 32P; intramolecular G4
# Method: as §1
# [6] = biological target: T1, human luteinizing hormone (hLH); experiment: filter; Mg, pH 6.5; details: tags: Becton Dickinson (2'-NH2 work); Scripps/Vitro Diagnostics (2'-F work); chain copies: alpha/beta heterodimer (inferred); label: 32P; G4 (RNase T1 protection in K+)
# Method: as §1, §2
# [7] = biological target: T3, human follicle stimulating hormone (hFSH) (Homo sapiens, UniProt P01215;P01225 P01215:25-116,P01225:19-129); experiment: filter; Mg, pH 6.5; details: tags: Becton Dickinson; chain copies: alpha/beta heterodimer (inferred); label: 32P; G4 (RNase T1 protection in K+)
# Method: as §1, §2
# [8] = biological target: T4, human thyroid stimulating hormone (hTSH) (Homo sapiens, UniProt P01215;P01222 P01215:25-116,P01222:21-132); experiment: filter; Mg, pH 6.5; details: tags: Becton Dickinson; chain copies: alpha/beta heterodimer (inferred); label: 32P; G4 (RNase T1 protection in K+)
# Method: as §1, §2
# [9] = biological target: T2, human chorionic gonadotropin (hCG) …; experiment: filter; TEM or TESM, 2.1 mM Mg, pH 6.5, 37 C; details: tags: Calbiochem or Vitro Diagnostics (14,000 IU/mg); chain copies: alpha/beta heterodimer (stated); label: 32P; G4 (RNase T1 protection in K+)
# Method: as §1, §2
# [10] = biological target: T2, human chorionic gonadotropin (hCG) …; experiment: filter; details: tags: Calbiochem or Vitro Diagnostics (14,000 IU/mg); chain copies: alpha/beta heterodimer (stated); label: 32P; two hairpins
# [11] = biological target: T2, human chorionic gonadotropin (hCG) …; experiment: filter; +/- 9 nM; details: tags: Calbiochem or Vitro Diagnostics (14,000 IU/mg); chain copies: alpha/beta heterodimer (stated); label: 32P; intramolecular G4
# Method: as §1
# [12] = biological target: T2, human chorionic gonadotropin (hCG) …; experiment: filter; SBB buffer; details: tags: Calbiochem or Vitro Diagnostics (14,000 IU/mg); chain copies: alpha/beta heterodimer (stated); label: 32P; hairpin
# [13] = biological target: T2, human chorionic gonadotropin (hCG) …; experiment: filter; in urine; details: tags: Calbiochem or Vitro Diagnostics (14,000 IU/mg); chain copies: alpha/beta heterodimer (stated); label: 32P; hairpin
# [14] = biological target: T2, human chorionic gonadotropin (hCG) …; experiment: filter; 17.2% bound at 100 nM; details: tags: Calbiochem or Vitro Diagnostics (14,000 IU/mg); chain copies: alpha/beta heterodimer (stated); label: 32P; hairpin
# [15] = biological target: T2, human chorionic gonadotropin (hCG) …; experiment: filter; +/- 3 nM (Table 5); details: tags: Calbiochem or Vitro Diagnostics (14,000 IU/mg); chain copies: alpha/beta heterodimer (stated); label: 32P; G4 (RNase T1 protection in K+)
# [16] = biological target: T4, human thyroid stimulating hormone (hTSH); experiment: filter; not pH sensitive, pH 5.8-7.2; details: tags: Becton Dickinson; chain copies: alpha/beta heterodimer (inferred); label: 32P; possible hairpin; no G4 by RNase T1
# [17] = biological target: T3, human follicle stimulating hormone …; experiment: filter; details: tags: Becton Dickinson; chain copies: alpha/beta heterodimer (inferred); label: 32P; possible hairpin; no G4 by RNase T1
# T2 sequence (P01215 25-116, chain 1 of 2, other chains not shown): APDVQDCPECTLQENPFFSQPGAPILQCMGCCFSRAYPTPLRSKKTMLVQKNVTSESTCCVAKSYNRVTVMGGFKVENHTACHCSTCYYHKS
# T4 sequence (P01215 25-116, chain 1 of 2): as the sequence (P01215 25-116, chain 1 of 2, other chains not shown) above
# T4 sequence (P01222 21-132, chain 2 of 2): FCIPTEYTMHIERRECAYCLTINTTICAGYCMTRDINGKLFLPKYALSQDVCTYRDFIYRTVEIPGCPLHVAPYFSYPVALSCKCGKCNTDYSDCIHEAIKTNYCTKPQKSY
# T3 sequence (P01215 25-116, chain 1 of 2): as the sequence (P01215 25-116, chain 1 of 2, other chains not shown) above
# T3 sequence (P01225 19-129, chain 2 of 2): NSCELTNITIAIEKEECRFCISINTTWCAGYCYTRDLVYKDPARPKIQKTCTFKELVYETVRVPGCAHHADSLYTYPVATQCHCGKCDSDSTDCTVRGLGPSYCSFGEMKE
# T1 sequence (P01215 25-116, chain 1 of 2): as the sequence (P01215 25-116, chain 1 of 2, other chains not shown) above
# T1 sequence (P01229 21-141, chain 2 of 2): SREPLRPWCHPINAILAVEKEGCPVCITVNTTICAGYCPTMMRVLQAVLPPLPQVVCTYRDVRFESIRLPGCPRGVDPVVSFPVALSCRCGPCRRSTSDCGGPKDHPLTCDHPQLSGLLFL
# Sequence of glycoprotein hormone common alpha-subunit (P01215 25-116, one chain of several): as the sequence (P01215 25-116, chain 1 of 2, other chains not shown) above
binder,measurement,setting,value
B1,Kd,[1],15 nM
same,Kd,[2],~200 nM
same,Kd,[3],~1400 nM
same,Kd,[4],6.2 nM
"GGAGGACGAUGCGGAGGGAACGCGGAGGGGUG (ssRNA, 2'-NH2 all pyrimidines) [delta17]",Kd,[5],25 nM
B2,Kd,[6],51 nM
same,Kd,[7],~1700 nM
same,Kd,[8],~1600 nM
same,Kd,[9],20 nM
B3,Kd,[10],~200 nM
"GGAGGACGAUGCGGAAAGGAGGAGGCUGGGUGCGUC (ssRNA, 2'-NH2 all pyrimidines) [delta25]",Kd,[11],24 nM
"GGGAGUCUCGUUGGUCGUUGAACGAUCCUUCGACAGGAGGCUCA (ssRNA, 2'-F all pyrimidines) [hCG ligand 9TR1]",Kd,[12],200 nM
same,Kd,[13],100 nM
B4,Kd,[14],150 nM
B5,Kd,[15],7.5 nM
B6,Kd,[16],14 nM
same,Kd,[17],~200 nM
